The results in this text go back to patent US20210316007A1 (DUKE UNIVERSITY, published 2021).

Assay [1] has as its target T1, mouse serum albumin (mouse, UniProt P07724 25-608).
T1 construct: also called MSA; mouse albumin
In words: ITC, MSA titrated into ELP, PBS pH 7.4, 37 °C; Example 2 ITC series (FIG. 4A), naked ELP control; weak µM best-fit KD that the text calls no specific affinity. (Isothermal titration calorimetry measures the heat released or taken up as one component is titrated into another.)

Assay [2] has as its target T1, mouse serum albumin. Briefly: ITC (Nano ITC), albumin titrated into construct, PBS, 37 °C; PTX-example ITC series (Table 10), CP without ABD and without drug; µM fit.
The target in assay [3] is T2, human serum albumin (human, UniProt P02768 25-609).
T2 construct: also called HSA; human albumin
In words: ITC, HSA titrated into ELP, PBS pH 7.4, 37 °C; Example 2 ITC series (FIG. 3A), naked ELP control.

For assay [4], the target named is T2, human serum albumin. In words: ITC, HSA titrated into ELP, PBS pH 7.4, 37 °C; Example 2 ITC series (FIG. 3A), naked ELP control; weak µM best-fit KD that the text calls no specific affinity.
The target of assay [5] is T1, mouse serum albumin. In words: ITC, MSA titrated into ELP, PBS pH 7.4, 37 °C; Example 2 ITC series (FIG. 4A), naked ELP control; fitted N with an error larger than the value.
The target of assay [6] is T1, mouse serum albumin. Briefly: ITC, MSA titrated into CP-DOX micelles, PBS pH 7.4, 37 °C.
Assay [7] has as its target T1, mouse serum albumin. Briefly: ITC (Nano ITC), albumin titrated into construct, PBS, 37 °C.
Assay [8] deals with T2, human serum albumin. The assay is described as above.
For assay [9], the target named is T2, human serum albumin. Briefly: ITC, HSA titrated into ABDN-ELP, PBS pH 7.4, 37 °C.
Procedure: (§1) The experiments were performed in phosphate buffered saline (pH 7.4) at 37° C.
In assay [10] the target is T1, mouse serum albumin. Briefly: ITC, MSA titrated into ABDN-ELP, PBS pH 7.4, 37 °C.
Procedure: as §1
Assay [11] has as its target T1, mouse serum albumin. In words: ITC, MSA titrated into ABDH-ELP, PBS pH 7.4, 37 °C.
Procedure: as §1
The target of assay [12] is T1, mouse serum albumin. In words: ITC, MSA titrated into ABDH-CP-DOX micelles, PBS pH 7.4, 37 °C.
Procedure: as §1
The target of assay [13] is T1, mouse serum albumin. In words: ITC, MSA titrated into ABDN-CP-DOX micelles, PBS pH 7.4, 37 °C.
Procedure: as §1
In assay [14] the target is T1, mouse serum albumin. In words: ITC (Nano ITC), albumin titrated into micelles, PBS, 37 °C.
Procedure: (§2) For PTX conjugates, ITC was conducted using a Nano ITC system (TA Instruments, Utah, USA). […] For background correction, PBS (in the cell) was titrated with albumin (in the syringe) at the same concentrations and conditions. Background was subtracted from the final curves and the binding and thermodynamic parameters binding constant (KD), number of binding sites (n), and enthalpy (ΔH)—were computed by non-linear fitting to an independent-binding site model using TA Instruments NanoAnalyze software.
Assay [15] has as its target T2, human serum albumin. The assay is described as above.
Procedure: as §2

T1 sequence (P07724 25-608 limits assumed): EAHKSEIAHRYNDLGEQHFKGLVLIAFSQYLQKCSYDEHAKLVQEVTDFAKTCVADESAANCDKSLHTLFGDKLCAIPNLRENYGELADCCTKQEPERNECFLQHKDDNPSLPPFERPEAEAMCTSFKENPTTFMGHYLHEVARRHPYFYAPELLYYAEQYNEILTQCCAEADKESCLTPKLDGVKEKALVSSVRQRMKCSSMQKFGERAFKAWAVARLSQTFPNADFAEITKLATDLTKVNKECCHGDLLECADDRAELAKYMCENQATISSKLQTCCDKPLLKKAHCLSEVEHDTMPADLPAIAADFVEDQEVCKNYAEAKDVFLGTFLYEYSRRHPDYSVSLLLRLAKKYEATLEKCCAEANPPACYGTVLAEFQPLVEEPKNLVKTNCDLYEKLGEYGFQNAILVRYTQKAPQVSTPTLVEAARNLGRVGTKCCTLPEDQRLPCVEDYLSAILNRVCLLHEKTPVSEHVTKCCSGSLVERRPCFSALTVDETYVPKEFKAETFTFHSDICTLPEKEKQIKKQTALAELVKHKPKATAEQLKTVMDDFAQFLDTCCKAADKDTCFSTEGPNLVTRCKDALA

In general, Kd refers to the equilibrium constant for the complex coming apart. Read a high Kd as a looser complex. Take “ELP (naked elastin-like polypeptide with no ABD at its N-terminus)”: the values for the Kd in assay [1], in [2] and in [4] were 71400 nM, 3500 nM and 69000 nM, respectively. The binding stoichiometry N in assay [3] amounted to 0.75; in [5], 0.152.

As for “CP-DOX micelles (doxorubicin-conjugated chimeric polypeptide without ABD)”, in [6], the Kd came to 91900 nM and the binding stoichiometry N worked out at 0.0386.

B1: ABDN-ELP (albumin binding domain N fused to the N-terminus of ELP) (designed binder)
chain: LAEAKVLANRELDKYGVSDYYKNLINNAKTVEGVKALIDEILAALPVPGAGVPGAGVPGAGVPGAGVPGAGVPGAGVPGAGVPGAGVPGAGVPGAGVPGAGVPGAGVPGAGVPGAGVPGAGVPGAGVPGAGVPGAGVPGAGVPGAGVPGAGVPGAGVPGAGVPGAGVPGAGVPGAGVPGAGVPGAGVPGAGVPGAGVPGAGVPGAGVPGAGVPGAGVPGAGVPGAGVPGAGVPGAGVPGAGVPGAGVPGAGVPGAGVPGAGVPGAGVPGAGVPGAGVPGAGVPGAGVPGAGVPGAGVPGAGVPGAGVPGAGVPGAGVPGAGVPGAGVPGAGVPGAGVPGAGVPGAGVPGAGVPGAGVPGAGVPGAGVPGAGVPGAGVPGAGVPGAGVPGAGVPGAGVPGAGVPGAGVPGAGVPGAGVPGAGVPGAGVPGAGVPGAGVPGAGVPGAGVPGAGVPGAGVPGAGVPGAGVPGAGVPGAGVPGAGVPGAGVPGAGVPGAGVPGAGVPGAGVPGAGVPGAGVPGAGVPGAGVPGAGVPGAGVPGAGVPGAGVPGAGVPGAGVPGAGVPGAGVPGAGVPGAGVPGAGVPGAGVPGAGVPGAGVPGAGVPGAGVPGAGVPGAGVPGAGVPGAGVPGAGVPGAGVPGAGVPGAGVPGAGVPGAGVPGAGVPGAGVPGAGVPGAGVPGAGVPGAGVPGAGVPGAGVPGAGVPGAGVPGAGVPGAGVPGAGVPGAGVPGAGVPGAGVPGAGVPGAGVPGAGVPGAGVPGAGVPGAGVPGAGVPGAGCGGCGGCGGCGGCGGCGGCGGCGG
notes: Unconjugated monomer, 68.5 kDa by SDS-PAGE; also called ABDN-CP; ABD-CP
Regarding B1, the Kd is 16.3 nM in assay [7], 6.47 nM in [8], 48.4 nM in assay [9] and 66.4 nM in [10].

B2: ABDH-ELP (albumin binding domain H, engineered variant of ABDN, fused to the N-terminus of ELP) (designed binder)
chain: LAEAKVLANRELDKYGVSDFYKRLINKAKTVEGVEALKLHILAALPVPGAGVPGAGVPGAGVPGAGVPGAGVPGAGVPGAGVPGAGVPGAGVPGAGVPGAGVPGAGVPGAGVPGAGVPGAGVPGAGVPGAGVPGAGVPGAGVPGAGVPGAGVPGAGVPGAGVPGAGVPGAGVPGAGVPGAGVPGAGVPGAGVPGAGVPGAGVPGAGVPGAGVPGAGVPGAGVPGAGVPGAGVPGAGVPGAGVPGAGVPGAGVPGAGVPGAGVPGAGVPGAGVPGAGVPGAGVPGAGVPGAGVPGAGVPGAGVPGAGVPGAGVPGAGVPGAGVPGAGVPGAGVPGAGVPGAGVPGAGVPGAGVPGAGVPGAGVPGAGVPGAGVPGAGVPGAGVPGAGVPGAGVPGAGVPGAGVPGAGVPGAGVPGAGVPGAGVPGAGVPGAGVPGAGVPGAGVPGAGVPGAGVPGAGVPGAGVPGAGVPGAGVPGAGVPGAGVPGAGVPGAGVPGAGVPGAGVPGAGVPGAGVPGAGVPGAGVPGAGVPGAGVPGAGVPGAGVPGAGVPGAGVPGAGVPGAGVPGAGVPGAGVPGAGVPGAGVPGAGVPGAGVPGAGVPGAGVPGAGVPGAGVPGAGVPGAGVPGAGVPGAGVPGAGVPGAGVPGAGVPGAGVPGAGVPGAGVPGAGVPGAGVPGAGVPGAGVPGAGVPGAGVPGAGVPGAGVPGAGVPGAGVPGAGVPGAGVPGAGVPGAGVPGAGVPGAGVPGAGVPGAGVPGAGVPGAGCGGCGGCGGCGGCGGCGGCGGCGG
notes: Unconjugated monomer, 68.6 kDa by SDS-PAGE; also called ABDH-CP
In turn, B2 showed a Kd in assay [11] of 5.19 nM.

B3: ABDH-CP-DOX micelles (doxorubicin-conjugated ABDH-chimeric polypeptide) (designed binder)
chain: LAEAKVLANRELDKYGVSDFYKRLINKAKTVEGVEALKLHILAALPVPGAGVPGAGVPGAGVPGAGVPGAGVPGAGVPGAGVPGAGVPGAGVPGAGVPGAGVPGAGVPGAGVPGAGVPGAGVPGAGVPGAGVPGAGVPGAGVPGAGVPGAGVPGAGVPGAGVPGAGVPGAGVPGAGVPGAGVPGAGVPGAGVPGAGVPGAGVPGAGVPGAGVPGAGVPGAGVPGAGVPGAGVPGAGVPGAGVPGAGVPGAGVPGAGVPGAGVPGAGVPGAGVPGAGVPGAGVPGAGVPGAGVPGAGVPGAGVPGAGVPGAGVPGAGVPGAGVPGAGVPGAGVPGAGVPGAGVPGAGVPGAGVPGAGVPGAGVPGAGVPGAGVPGAGVPGAGVPGAGVPGAGVPGAGVPGAGVPGAGVPGAGVPGAGVPGAGVPGAGVPGAGVPGAGVPGAGVPGAGVPGAGVPGAGVPGAGVPGAGVPGAGVPGAGVPGAGVPGAGVPGAGVPGAGVPGAGVPGAGVPGAGVPGAGVPGAGVPGAGVPGAGVPGAGVPGAGVPGAGVPGAGVPGAGVPGAGVPGAGVPGAGVPGAGVPGAGVPGAGVPGAGVPGAGVPGAGVPGAGVPGAGVPGAGVPGAGVPGAGVPGAGVPGAGVPGAGVPGAGVPGAGVPGAGVPGAGVPGAGVPGAGVPGAGVPGAGVPGAGVPGAGVPGAGVPGAGVPGAGVPGAGVPGAGVPGAGVPGAGVPGAGVPGAGVPGAGVPGAGVPGAGVPGAGVPGAGCGGCGGCGGCGGCGGCGGCGGCGG
notes: Self-assembled micelle; aggregates at 37 °C without albumin
Turning to B3, the Kd in assay [12] was 66.1 nM.

B4: ABDN-CP-DOX micelles (doxorubicin-conjugated ABDN-chimeric polypeptide) (designed binder)
chain: LAEAKVLANRELDKYGVSDYYKNLINNAKTVEGVKALIDEILAALPVPGAGVPGAGVPGAGVPGAGVPGAGVPGAGVPGAGVPGAGVPGAGVPGAGVPGAGVPGAGVPGAGVPGAGVPGAGVPGAGVPGAGVPGAGVPGAGVPGAGVPGAGVPGAGVPGAGVPGAGVPGAGVPGAGVPGAGVPGAGVPGAGVPGAGVPGAGVPGAGVPGAGVPGAGVPGAGVPGAGVPGAGVPGAGVPGAGVPGAGVPGAGVPGAGVPGAGVPGAGVPGAGVPGAGVPGAGVPGAGVPGAGVPGAGVPGAGVPGAGVPGAGVPGAGVPGAGVPGAGVPGAGVPGAGVPGAGVPGAGVPGAGVPGAGVPGAGVPGAGVPGAGVPGAGVPGAGVPGAGVPGAGVPGAGVPGAGVPGAGVPGAGVPGAGVPGAGVPGAGVPGAGVPGAGVPGAGVPGAGVPGAGVPGAGVPGAGVPGAGVPGAGVPGAGVPGAGVPGAGVPGAGVPGAGVPGAGVPGAGVPGAGVPGAGVPGAGVPGAGVPGAGVPGAGVPGAGVPGAGVPGAGVPGAGVPGAGVPGAGVPGAGVPGAGVPGAGVPGAGVPGAGVPGAGVPGAGVPGAGVPGAGVPGAGVPGAGVPGAGVPGAGVPGAGVPGAGVPGAGVPGAGVPGAGVPGAGVPGAGVPGAGVPGAGVPGAGVPGAGVPGAGVPGAGVPGAGVPGAGVPGAGVPGAGVPGAGVPGAGVPGAGVPGAGVPGAGVPGAGVPGAGVPGAGVPGAGCGGCGGCGGCGGCGGCGGCGGCGG
notes: Self-assembled micelle; also called ABD-CP-DOX
Molecule B4 came in with a Kd in [13] of 318 nM.

B5: ABD-CP-PTX micelles (paclitaxel-conjugated ABD-chimeric polypeptide) (designed binder)
chain: LAEAKVLANRELDKYGVSDYYKNLINNAKTVEGVKALIDEILAALPVPGAGVPGAGVPGAGVPGAGVPGAGVPGAGVPGAGVPGAGVPGAGVPGAGVPGAGVPGAGVPGAGVPGAGVPGAGVPGAGVPGAGVPGAGVPGAGVPGAGVPGAGVPGAGVPGAGVPGAGVPGAGVPGAGVPGAGVPGAGVPGAGVPGAGVPGAGVPGAGVPGAGVPGAGVPGAGVPGAGVPGAGVPGAGVPGAGVPGAGVPGAGVPGAGVPGAGVPGAGVPGAGVPGAGVPGAGVPGAGVPGAGVPGAGVPGAGVPGAGVPGAGVPGAGVPGAGVPGAGVPGAGVPGAGVPGAGVPGAGVPGAGVPGAGVPGAGVPGAGVPGAGVPGAGVPGAGVPGAGVPGAGVPGAGVPGAGVPGAGVPGAGVPGAGVPGAGVPGAGVPGAGVPGAGVPGAGVPGAGVPGAGVPGAGVPGAGVPGAGVPGAGVPGAGVPGAGVPGAGVPGAGVPGAGVPGAGVPGAGVPGAGVPGAGVPGAGVPGAGVPGAGVPGAGVPGAGVPGAGVPGAGVPGAGVPGAGVPGAGVPGAGVPGAGVPGAGVPGAGVPGAGVPGAGVPGAGVPGAGVPGAGVPGAGVPGAGVPGAGVPGAGVPGAGVPGAGVPGAGVPGAGVPGAGVPGAGVPGAGVPGAGVPGAGVPGAGVPGAGVPGAGVPGAGVPGAGVPGAGVPGAGVPGAGVPGAGVPGAGVPGAGVPGAGVPGAGVPGAGVPGAGVPGAGVPGAGCGGCGGCGGCGGCGGCGGCGGCGG
notes: Self-assembled micelle; also called ABDN-CP-PTX
Turning to B5, the Kd in assay [14] came to 4.37 nM; in assay [15], 5.58 nM.
